Assay results taken from PMC7842947.

Target: chondroitin sulfate proteoglycan 4 (CSPG4), endogenous on HeLa cells (human (endogenous in HeLa)) (UniProt Q6UVK1)
Sequence of UniProt Q6UVK1 (Q6UVK1 30-2322): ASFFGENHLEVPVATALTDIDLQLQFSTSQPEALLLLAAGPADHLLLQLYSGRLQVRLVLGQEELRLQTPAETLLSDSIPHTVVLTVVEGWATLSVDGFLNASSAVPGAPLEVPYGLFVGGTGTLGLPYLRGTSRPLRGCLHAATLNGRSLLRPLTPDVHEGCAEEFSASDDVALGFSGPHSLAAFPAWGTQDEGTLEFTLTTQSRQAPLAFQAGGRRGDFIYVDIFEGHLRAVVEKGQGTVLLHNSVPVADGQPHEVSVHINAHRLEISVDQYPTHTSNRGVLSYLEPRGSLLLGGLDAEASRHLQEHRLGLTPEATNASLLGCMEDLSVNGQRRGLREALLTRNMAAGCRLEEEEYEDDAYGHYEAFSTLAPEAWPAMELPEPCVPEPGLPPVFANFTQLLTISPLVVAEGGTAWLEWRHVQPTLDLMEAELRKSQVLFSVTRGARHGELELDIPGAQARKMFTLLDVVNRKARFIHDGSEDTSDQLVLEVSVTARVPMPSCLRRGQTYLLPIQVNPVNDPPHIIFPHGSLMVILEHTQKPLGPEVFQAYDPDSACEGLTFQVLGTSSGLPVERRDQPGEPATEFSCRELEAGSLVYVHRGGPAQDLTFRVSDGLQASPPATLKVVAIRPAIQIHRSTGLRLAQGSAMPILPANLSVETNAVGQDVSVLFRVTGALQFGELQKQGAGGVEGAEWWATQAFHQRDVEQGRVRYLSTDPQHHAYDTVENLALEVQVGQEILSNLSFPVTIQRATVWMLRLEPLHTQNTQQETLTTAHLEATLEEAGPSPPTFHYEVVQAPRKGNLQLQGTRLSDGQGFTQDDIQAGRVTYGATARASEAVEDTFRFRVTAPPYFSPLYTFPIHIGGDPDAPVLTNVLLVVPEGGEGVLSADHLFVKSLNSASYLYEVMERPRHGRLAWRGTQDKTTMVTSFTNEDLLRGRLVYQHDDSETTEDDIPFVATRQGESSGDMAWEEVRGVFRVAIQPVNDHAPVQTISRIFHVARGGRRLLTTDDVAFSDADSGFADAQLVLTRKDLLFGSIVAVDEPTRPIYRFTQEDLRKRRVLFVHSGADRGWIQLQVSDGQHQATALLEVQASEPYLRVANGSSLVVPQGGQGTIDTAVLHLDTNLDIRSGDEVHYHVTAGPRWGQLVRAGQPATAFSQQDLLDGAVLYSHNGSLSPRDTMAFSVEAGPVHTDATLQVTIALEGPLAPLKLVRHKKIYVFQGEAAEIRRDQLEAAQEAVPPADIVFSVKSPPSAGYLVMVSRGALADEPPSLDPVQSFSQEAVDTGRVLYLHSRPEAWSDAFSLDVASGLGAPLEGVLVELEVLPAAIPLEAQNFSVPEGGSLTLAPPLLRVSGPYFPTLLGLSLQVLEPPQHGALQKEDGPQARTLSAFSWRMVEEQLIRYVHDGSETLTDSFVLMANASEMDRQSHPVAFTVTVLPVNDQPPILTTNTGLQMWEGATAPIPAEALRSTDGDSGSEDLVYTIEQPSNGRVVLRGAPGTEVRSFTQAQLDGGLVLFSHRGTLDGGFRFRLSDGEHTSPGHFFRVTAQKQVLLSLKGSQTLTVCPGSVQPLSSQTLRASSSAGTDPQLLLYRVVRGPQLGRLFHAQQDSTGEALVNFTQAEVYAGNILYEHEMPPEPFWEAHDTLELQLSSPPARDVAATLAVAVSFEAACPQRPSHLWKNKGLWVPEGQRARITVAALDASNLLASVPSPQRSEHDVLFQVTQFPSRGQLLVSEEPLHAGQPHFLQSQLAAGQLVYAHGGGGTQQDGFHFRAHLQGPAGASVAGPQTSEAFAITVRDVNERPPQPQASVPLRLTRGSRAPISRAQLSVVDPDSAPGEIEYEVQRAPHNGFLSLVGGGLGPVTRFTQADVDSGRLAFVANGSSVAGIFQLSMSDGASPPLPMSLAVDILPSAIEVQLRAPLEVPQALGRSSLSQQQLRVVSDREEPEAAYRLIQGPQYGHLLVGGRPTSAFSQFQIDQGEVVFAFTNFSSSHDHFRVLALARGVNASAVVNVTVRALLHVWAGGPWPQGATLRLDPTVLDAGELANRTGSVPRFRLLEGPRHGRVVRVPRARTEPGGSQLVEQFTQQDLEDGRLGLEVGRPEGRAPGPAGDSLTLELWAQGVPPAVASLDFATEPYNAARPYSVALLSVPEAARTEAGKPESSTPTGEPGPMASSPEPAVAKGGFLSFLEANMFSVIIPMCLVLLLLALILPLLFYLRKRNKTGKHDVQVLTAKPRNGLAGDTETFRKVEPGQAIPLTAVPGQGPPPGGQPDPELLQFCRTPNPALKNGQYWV

“Clostridioides difficile toxin B variant 2 (TcdB2), full length, reference sequence from strain CD196 (natural protein)” was tested, and the CR50, cytopathic cell-rounding assay on HeLa FZD1/2/7-/- cells was 0.06 pM.
